The values below come from patent US20250011418A1 (ZIELBIO, published 2025).

What is called EC50 (read off the curve) is the concentration that produces a half-maximal response. A low value points to higher potency in that assay. What is called EC50 is the concentration needed to bring the measured effect to its halfway point. For orientation: Kd means a measure of binding affinity in units of concentration.

Experiment [1] concerns the target T1, Sec8-His (section 8 (Sec8), an antigenic region of CSP-1, tagged with a polyhistidine (His) tag).
T1 construct: also called Sec8-His antigen
T1 chain: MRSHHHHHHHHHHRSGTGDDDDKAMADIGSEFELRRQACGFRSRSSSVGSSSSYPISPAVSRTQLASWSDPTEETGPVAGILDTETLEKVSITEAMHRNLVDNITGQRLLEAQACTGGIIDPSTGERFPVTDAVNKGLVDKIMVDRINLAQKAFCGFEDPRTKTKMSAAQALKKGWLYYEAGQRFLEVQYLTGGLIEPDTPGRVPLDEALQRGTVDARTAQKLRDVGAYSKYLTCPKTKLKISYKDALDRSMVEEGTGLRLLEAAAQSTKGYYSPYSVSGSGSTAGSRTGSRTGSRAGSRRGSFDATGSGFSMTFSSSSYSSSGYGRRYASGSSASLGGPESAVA
Briefly: ELISA on Sec8-His (target per paragraph 36), absorbance 650 nm; curve assigned by the marker in the legend. (In general: An ELISA detects its analyte on a solid surface through an enzyme-linked reagent.)

In experiment [2] the target is T2, Reb-His (Reb, a sub-fragment of Sec8, tagged with a polyhistidine (His) tag).
T2 construct: also called Reb-His peptide
T2 chain: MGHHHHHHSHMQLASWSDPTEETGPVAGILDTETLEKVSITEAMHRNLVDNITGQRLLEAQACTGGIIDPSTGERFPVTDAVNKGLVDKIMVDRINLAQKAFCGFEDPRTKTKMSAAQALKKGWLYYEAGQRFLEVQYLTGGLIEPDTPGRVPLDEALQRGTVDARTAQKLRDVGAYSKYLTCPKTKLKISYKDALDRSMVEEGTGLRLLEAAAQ
Briefly: ELISA on REB-HIS, absorbance 650 nm; no unit stands beside the number, the concentration axis is in nM.

In experiment [3] the target is T1, Sec8-His (section 8 (Sec8), an …). Briefly: ELISA on Sec8-His (target per paragraph 36), absorbance 650 nm; no unit stands beside the number, the concentration axis is in nM; number as printed beside the name, but it fits the circle curve better than the square curve.
Experiment [4] shares this target. Briefly: ELISA on Sec8-His (target per paragraph 36), absorbance 650 nm; no unit stands beside the number, the concentration axis is in nM; number as printed beside the name, but it fits the square curve better than the circle curve.
The target is the same in experiment [5]. Put plainly: BLI (Octet), single shot: antibody on anti-human IgG tips, 24 nM Sec8-His. On the procedure: After humanization, the antibodies were tested for their capability to bind to an antigenic region of CSP-1 called section 8 (Sec8). Antigen binding was assessed by single-shot Octet analysis. Antibodies were loaded onto anti-human IgG tips, and the loaded tips were dipped into wells containing the Sec8-His antigen. Scouting experiments were used to determine ideal conditions for loading (10 minute incubation in 1 μg/mL IgG) and antigen binding (5 minute incubation in 24 nM Sec8-His, followed by a 5 minute dissociation step in buffer). Two negative controls were included with each experiment. First, a tip was loaded with irrelevant IgG dipped into 24 nM Sec8-His to control for non-specific interactions between the tip and the antigen. Next, tips loaded with humanized 1D7 variants were dipped into 24 nM GST-His to control for off-target binding of the antibody (a significant risk if a given variant is destabilized and/or exposes significant hydrophobic surface). The data from the irrelevant IgG control were subtracted from the data obtained with the […]-loaded tips. The mean and standard deviation of the signal change values for the GST-His control wells were used to calculate a threshold for positive binding (mean+3 standard deviations of the GST-His signal). Variants that were below this threshold are considered to have no specific binding to Sec8.
Background: Biolayer interferometry detects binding as a change in optical thickness at a sensor tip.

B1: murine anti-CSP-1 antibody 1H11 (antibody, V domains shown)
VH: QIQLVQSGPELKKPGETVKISCKASGYTFTDYSMHWVKQAPGKGLKWMGWINTETGEPTYADDFKGRFAFSLETSASTAYLQINNLKNEDTATYFCAPGGFAYWGQGTLVTVSA
VL: DIVMTQAAPSVPVTPGESVSISCRSSKSLLHSNGNTYLYWFLQRPGQSPQLLIYRMSNLASGVPDRFSGSGSGTAFTLRISRVEAEDVGVYYCMQHLEYPLTFGAGTKLELKR
notes: Murine antibody; also called 1H11B5
For B1, the “EC50 (read off the curve)” value in experiment [1] was ~100 pM. This molecule also gave an EC50 in experiment [2] of 531 pM. The same molecule registered a Kd in experiment [3] of 583 pM.

B2: antibody-drug conjugate comprising the murine anti-CSP-1 antibody 1H11 and the chemotherapeutic drug SN38 (antibody, V domains shown)
VH: QIQLVQSGPELKKPGETVKISCKASGYTFTDYSMHWVKQAPGKGLKWMGWINTETGEPTYADDFKGRFAFSLETSASTAYLQINNLKNEDTATYFCAPGGFAYWGQGTLVTVSA
VL: DIVMTQAAPSVPVTPGESVSISCRSSKSLLHSNGNTYLYWFLQRPGQSPQLLIYRMSNLASGVPDRFSGSGSGTAFTLRISRVEAEDVGVYYCMQHLEYPLTFGAGTKLELKR
modifications: SN38 (small-molecule drug) is conjugated to the antibody. The linker, the conjugation residues, the chain that carries it and the drug-to-antibody ratio are not stated, and the letters cannot carry it.
notes: also called 1H11-SN38 conjugate
For B2, the “EC50 (read off the curve)” value in experiment [1] is ~600 pM. The affinity in experiment [4], expressed as Kd, was 140 pM.

B3: humanized anti-CSP-1 antibody, Antibody Number 42 (Table 1) (antibody, human IgG1, V domains shown)
VH: QIQLVQSGSELKKPGASVKVSCKASGYTFTDYSMHWVRQAPGQGLEWMGWINTETGEPTYAQGFTGRFVFSLDTSVSTAYLQISSLKAEDTAVYFCAPGGFAYWGQGTLVTVSS
VL: DIVMTQSPLSLPVTPGEPASISCRSSKSLLHSNGNTYLYWFLQKPGQSPQLLIYRMSNLASGVPDRFSGSGSGTDFTLKISRVEAEDVGVYYCMQHLEYPLTFGAGTKLELK
notes: also called Antibody 42
For the molecule B3, the binding result in experiment [5] is reported as “binds”.

B4: humanized anti-CSP-1 antibody, Antibody Number 8 (Table 1) (antibody, human IgG1, V domains shown)
VH: QIQLVQSGPEVKKPGASVKISCKASGYTFTDYSMHWVRQAPGQGLEWMGWINTETGEPTYAQKFQGRFTFTLDTSTSTAYLEISSLRSEDTAVYFCAPGGFAYWGQGTLVTVSS
VL: DIVMTQAAPSVPVTPGESVSISCRSSKSLLHSNGNTYLYWFLQRPGQSPQLLIYRMSNLASGVPDRFSGSGSGTAFTLRISRVEAEDVGVYYCMQHLEYPLTFGAGTKLELK
notes: also called Antibody 8
Take B4: the binding result in experiment [5] was “binds”.

B5: humanized anti-CSP-1 antibody, Antibody Number 41 (Table 1) (antibody, human IgG1, V domains shown)
VH: QIQLVQSGSELKKPGASVKVSCKASGYTFTDYSMHWVRQAPGQGLEWMGWINTETGEPTYAQGFTGRFVFSLDTSVSTAYLQISSLKAEDTAVYFCAPGGFAYWGQGTLVTVSS
VL: DIVMTQSPLSLPVTPGEPASISCRSSKSLLHSNGNTYLYWFLQKPGQSPQLLIYRMSNRASGVPDRFSGSGSGTDFTLKISRVEAEDVGVYYCMQHLEYPLTFGQGTKLEIK
notes: also called Antibody 41
As for B5, the binding result in experiment [5] is “binds”.

B6: humanized anti-CSP-1 antibody, Antibody Number 48 (Table 1) (antibody, human IgG1, V domains shown)
VH: QIQLVQSGSELKKPGASVKVSCKASGYTFTDYSMHWVRQAPGQGLEWMGWINTETGEPTYAQGFTGRFVFSLDTSVSTAYLQISSLKAEDTAVYFCAPGGFAYWGQGTLVTVSS
VL: DIVMTQSPLSLPVTPGEPASISCRSSKSLLHSNGNTYLYWFLQKPGQSPQLLIYRLSNLASGVPDRFSGSGSGTDFTLKISRVEAEDVGVYYCMQHLEYPLTFGAGTKLELK
notes: also called Antibody 48
As for B6, the binding result in experiment [5] is reported as “binds”.

B7: humanized anti-CSP-1 antibody, Antibody Number 40 (Table 1) (antibody, human IgG1, V domains shown)
VH: QVQLVQSGSELKKPGASVKVSCKASGYTFTDYSMNWVRQAPGQGLEWMGWINTETGEPTYAQGFTGRFVFSLDTSVSTAYLQISSLKAEDTAVYYCAPGGFAYWGQGTLVTVSS
VL: DIVMTQSPLSLPVTPGEPASISCRSSKSLLHSNGNTYLYWFLQKPGQSPQLLIYRMSNRASGVPDRFSGSGSGTDFTLKISRVEAEDVGVYYCMQHLEYPLTFGQGTKLEIK
notes: also called Antibody 40
On to B7, for which the binding result in experiment [5] was “binds”.

B8: humanized anti-CSP-1 antibody, Antibody Number 39 (Table 1) (antibody, human IgG1, V domains shown)
VH: EVQLVESGGGLVQPGGSLRLSCAASGFTFSRYGMSWVRQAPGKGLEWVATISIGGTYTYYPDSMKGRFTISRDNSKNTLYLQMNSLRAEDTAVYYCARRGYGNYSYYGMDYWGQGTLVTVSS
VL: DIVMTQSALSLPVTLGQSASISCRSSKSLLHSNGITYLYWYLQKPGQSPQLLIYQMSNRASGVPDRFSSSGSGTDFTLKISRVEAEDVGVYYCAQNLELPLTFGQGTKLEIK
notes: also called Antibody 39
For the molecule B8, the binding result in experiment [5] is “binds”.

B9: humanized anti-CSP-1 antibody, Antibody Number 49 (Table 1) (antibody, human IgG1, V domains shown)
VH: EVQLVESGGGLVQPGGSLRLSCAASGFTFSRYGMSWVRQAPGKRLEWVATISIGGTYTYYPDSMKGRFTISRDNSKNTLYLQMNSLRAEDTAMYYCARRGYGQYSYYGMDYWGQGTLVTVSS
VL: DIVMTQSALSNPVTLGQSASISCRSSKSLLHSNGITYLYWYLQKPGQSPQLLIYQMSNRASGVPDRFSSSGSGTDFTLKISRVEAEDVGVYYCAQNLELPLTFGQGTKLEIK
notes: also called Antibody 49
For the molecule B9, the binding result in experiment [5] was “binds”.

B10: humanized anti-CSP-1 antibody, Antibody Number 43 (Table 1) (antibody, human IgG1, V domains shown)
VH: EVQLVESGGGLVKPGGSLRLSCAASGFTFSRYGMNWVRQAPGKGLEWVSSISIGGTYTYYADSVKGRFTISRDNAKNSLYLQMNSLRAEDTAVYYCARRGYGNYSYYGMDYWGQGTLVTVSS
VL: DIVMTQSPLSLPVTPGEPASISCRSSKSLLHSNGITYLYWYLQKPGQSPQLLIYQMSNRASGVPDRFSGSGSGTDFTLKISRVEAEDVGVYYCAQNLELPLTFGQGTKLEIK
notes: also called Antibody 43
Regarding B10, the binding result in experiment [5] was “binds”.

B11: humanized anti-CSP-1 antibody, Antibody Number 44 (Table 1) (antibody, human IgG1, V domains shown)
VH: EVQLVESGGGLVKPGGSLRLSCAASGFTFSRYGMNWVRQAPGKGLEWVSSISIGGTYTYYADSVKGRFTISRDNAKNSLYLQMNSLRAEDTAVYYCARRGYGNYSYYGMDYWGQGTLVTVSS
VL: DIVMTQSPLSLPVTPGEPASISCRSSKSLLHSNGITYLYWYLQKPGQSPQLLIYQMSNLASGVPDRFSGSGSGTDFTLKISRVEAEDVGVYYCAQNLELPLTFGQGTKLEIK
notes: also called Antibody 44
On to B11, for which, in experiment [5], the binding result is on record as “binds”.

B12: humanized anti-CSP-1 antibody, Antibody Number 45 (Table 1) (antibody, human IgG1, V domains shown)
VH: EVQLVESGGGLVKPGGSLRLSCAASGFTFSRYGMNWVRQAPGKGLEWVSSISIGGTYTYYADSVKGRFTISRDNAKNSLYLQMNSLRAEDTAVYYCARRGYGNYSYYGMDYWGQGTLVTVSS
VL: DIVMTQSPLSLPVTPGEPASISCRSSKSLLHSNGITYLYWYLQKPGQSPQLLIYQMSNLASGVPDRFSSSGSGTDFTLKISRVEAEDVGVYYCAQNLELPLTFGQGTKLEIK
notes: also called Antibody 45
B12: the binding result in experiment [5] is given as “binds”.

B13: humanized anti-CSP-1 antibody, Antibody Number 50 (Table 1) (antibody, human IgG1, V domains shown)
VH: EVQLVESGGGLVQPGGSLRLSCAASGFTFSRYGMSWVRQAPGKRLEWVATISIGGTYTYYPDSMKGRFTISRDNSKNTLYLQMNSLRAEDTAMYYCARRGYGQYSYYGLDYWGQGTLVTVSS
VL: DIVMTQSALSNPVTLGQSASISCRSSKSLLHSNGITYLYWYLQKPGQSPQLLIYQMSNRASGVPDRFSSSGSGTDFTLKISRVEAEDVGVYYCAQNLELPLTFGQGTKLEIK
notes: also called Antibody 50
With B13, the binding result in experiment [5] is “binds”.

B14: humanized anti-CSP-1 antibody, Antibody Number 46 (Table 1) (antibody, human IgG1, V domains shown)
VH: EVQLVESGGGLVKPGGSLRLSCAASGFTFSRYGMSWVRQAPGKGLEWVSSISIGGTYTYYADSVKGRFTISRDNAKNSLYLQMNSLRAEDTAVYYCARRGYGNYSYYGMDYWGQGTLVTVSS
VL: DIVMTQSPLSLPVTPGEPASISCRSSKSLLHSNGITYLYWYLQKPGQSPQLLIYQMSNLASGVPDRFSSSGSGTDFTLKISRVEAEDVGVYYCAQNLELPLTFGQGTKLEIK
notes: also called Antibody 46
For B14, the binding result in experiment [5] is on record as “binds”.
